Assay results: doi:10.1101/716332

Molecular target: PA28γ (endogenous, U2OS cells) (human (endogenous in U2OS)) (UniProt P61289)
Assay: proximity ligation

UniProt P61289, sequence (P61289 whole entry): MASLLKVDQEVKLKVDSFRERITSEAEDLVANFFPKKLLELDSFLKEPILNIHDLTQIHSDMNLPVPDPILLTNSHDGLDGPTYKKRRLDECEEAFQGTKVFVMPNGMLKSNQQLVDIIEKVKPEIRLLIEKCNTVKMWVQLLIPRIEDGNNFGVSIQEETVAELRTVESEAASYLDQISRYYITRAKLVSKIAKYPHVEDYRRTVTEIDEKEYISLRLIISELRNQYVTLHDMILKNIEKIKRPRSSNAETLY

20S proteasome (endogenous, U2OS cells), detected by its α4 subunit (from UniProt O14818 1-248) (complex)
PLA dots per nucleus (PLA dots per nucleus): < 60
